The chains are these.
B1: SEQ ID NO: 20 (peptide)
peptide: GFCWYWCVYRNGVRVCYRRCN
B2: SEQ ID NO: 315 (peptide)
peptide: GFCWRVCVYRNGVRKCHRRCN
B3: SEQ ID NO: 282 (peptide)
peptide: GFCWNVCVYRNGVRVCHRRCH
B4: SEQ ID NO: 260 (peptide)
peptide: GFCWNFCVYRNGVRVCHRRCN
B5: SEQ ID NO: 284 (peptide)
peptide: GFCWNVCVYRNGVRVCHRRCK
B6: SEQ ID NO: 275 (peptide)
peptide: GFCWNVCLYRNGVRVCHRRCN
B7: SEQ ID NO: 252 (peptide)
peptide: GFCWNVCVYRNGVRRCHRRCN
B8: SEQ ID NO: 262 (peptide)
peptide: GFCWNICVYRNGVRVCHRRCN
B9: SEQ ID NO: 254 (peptide)
peptide: GFCWNVCVYRNGVRYCHRRCN
B10: SEQ ID NO: 249 (peptide)
peptide: GFCWNVCVYRNGVRLCHRRCN
B11: SEQ ID NO: 253 (peptide)
peptide: GFCWNVCVYRNGVRWCHRRCN
B12: SEQ ID NO: 281 (peptide)
peptide: GFCWNVCVYRNGVRVCHRRCG
B13: SEQ ID NO: 303 (peptide)
peptide: GFCWNVCVHRNGVRVCHRRCN
B14: SEQ ID NO: 305 (peptide)
peptide: GFCWNVCVKRNGVRVCHRRCN
B15: SEQ ID NO: 258 (peptide)
peptide: GFCWNACVKRNGVRVCYRRCN
B16: SEQ ID NO: 251 (peptide)
peptide: GFCWNVCVYRNGVRNCHRRCN
B17: SEQ ID NO: 313 (peptide)
peptide: GFCWRVCVYRNGARKCYRRCN
B18: SEQ ID NO: 308 (peptide)
peptide: GFCWNVCVRRNGVRVCHRRCN
B19: SEQ ID NO: 19 (peptide)
peptide: GFCWYSCVYRNGVRVCYRRCN
B20: SEQ ID NO: 263 (peptide)
peptide: GFCWNLCVYRNGVRVCHRRCN
B21: SEQ ID NO: 272 (peptide)
peptide: GFCWNVCFYRNGVRVCHRRCN
B22: SEQ ID NO: 289 (peptide)
peptide: GFCWNVCVYRNGVRVCHRRCR
B23: SEQ ID NO: 291 (peptide)
peptide: GFCWNVCVYRNGVRVCHRRCW
B24: SEQ ID NO: 267 (peptide)
peptide: GFCWNWCVYRNGVRVCHRRCN
B25: SEQ ID NO: 299 (peptide)
peptide: GFCWNVCVARNGVRVCHRRCN

The assay has as its target serum proteins. Description: 90% serum, 30 kDa ultrafiltration, HPLC.
Regarding B1, the Protein binding (%) is 99%. Molecule B2 returned a Protein binding (%) of 93%. Turning to B3, the Protein binding (%) was determined as 82%. Then B4, with 84%; and B5, with 72%.

The molecule B6 gave a Protein binding (%) of 80%. B7 came in with a Protein binding (%) of 76%. B8: the Protein binding (%) worked out at 88%. For B9, the Protein binding (%) was found to be 77%. Consider B10, for which the Protein binding (%) was determined as 83%.

Regarding B11, the Protein binding (%) turned out to be 94%. As for B12, the figure is 66%.

Molecule B13 returned a Protein binding (%) of 43%. Molecule B14 gave a Protein binding (%) of 76%. As for B15, the figure is 89%; as for B16, 71%.

For B17, the Protein binding (%) worked out at 98%. In the case of B18, the Protein binding (%) is 94%. Then B19, with 89%; and B20, with 80%; and B21, with 74%. On to B22, for which the Protein binding (%) came out at 83%. As for B23, the figure is 99%.

As to B24, the Protein binding (%) stood at 85%. B25 yielded a Protein binding (%) of 74%.

For the origin of these results see patent US20150031601A1.
